Data as given in patent US20130288372A1 (Bristol-Myers Squibb, published 2013).

T1: Human IL-23 (human, UniProt Q9NPF7 20-189; P29460 23-328)
T1 sequence (looked up) 1: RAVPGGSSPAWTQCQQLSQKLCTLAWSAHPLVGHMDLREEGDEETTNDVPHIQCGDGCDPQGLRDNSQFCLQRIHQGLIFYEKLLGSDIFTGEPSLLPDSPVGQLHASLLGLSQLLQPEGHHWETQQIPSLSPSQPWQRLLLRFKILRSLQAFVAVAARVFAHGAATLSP
T1 sequence (looked up) 2: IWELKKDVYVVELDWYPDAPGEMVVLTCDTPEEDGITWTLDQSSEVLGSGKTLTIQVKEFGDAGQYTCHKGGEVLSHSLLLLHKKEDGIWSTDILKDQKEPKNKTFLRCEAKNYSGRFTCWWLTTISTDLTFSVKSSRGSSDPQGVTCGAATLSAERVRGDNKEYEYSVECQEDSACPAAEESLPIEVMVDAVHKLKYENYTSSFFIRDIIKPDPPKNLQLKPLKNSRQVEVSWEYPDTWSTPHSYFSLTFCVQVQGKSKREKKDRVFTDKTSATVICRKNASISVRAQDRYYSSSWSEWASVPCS


Legend:
Human IL-23 [1] = molecular target: T1, Human IL-23; assay: cell-based or functional assay
Human IL-23 [2] = molecular target: T1, Human IL-23; assay: competitive ELISA, ratio of IC50 against parent 1454B08
Procedure: (§1) Adnectin variants were tested by ELISA for their ability to bind IL-23 in a manner that was competitive with the binding site of the native IL-23 receptor (IL-23R). Recombinant human IL-23R-Fc (R&D Systems, Minneapolis, Minn.) was coated overnight at 4° C. on a NUNC® Maxisorp plate (Thermo Fisher Scientific, Denmark) with 50 μL at 4 μg/mL in PBS. All washing was performed with PBST (PBS with 0.05% (w/v) Tween) using an automated plate washer (Biotek, Vt.). OptEIA buffer (BD Bioscience, CA) was used as block and assay diluent. Adnectin dilutions ranging from 200 nM to 28 pM were pre-incubated with 1 nM IL-23 for an hour before transferring to blocked IL-23R-Fc coated plates for 30 minutes. Bound IL-23 was detected via anti-IL-23 (GeneTex, CA) and anti-mouse-HRP (R&D Systems, MN) followed by TMB (3,3′,5,5′-tetramethylbenzidine) (BD Bioscience, CA) addition. Typical development time was 10 minutes. […] IC50s were generated from the average of four runs with an in-house curve fitting application.

Human IL-23 [3] = molecular target: T1, Human IL-23; assay: competitive ELISA: Adnectin pre-incubated with 1 nM IL-23, binding to coated IL-23R-Fc
Procedure: as §1

Human IL-23 [4] = molecular target: T1, Human IL-23; assay: SPR (Biacore T100), Adnectin captured by anti-His mAb, IL-23 injected, 25 C
Procedure: The anti-His antibody, mAb050 (RnD Systems, MN) was diluted to 20 μg/mL in acetate, pH 5.0 and immobilized to ˜9000 RU on flow cells 1 and 2 of a CM5 chip surface (GE Healthcare, Piscataway, N.J.) according to the manufacturer's instructions. All surface plasmon experiments were conducted in HBS-EP (10 mM Hepes 150 mM NaCl 3 mM EDTA 0.05% Surfactant P20) at 25° C. IL-23 was injected over anti-His mAb captured Adnectins for 2 minutes followed by a 10 minute dissociation phase. Kinetic parameters were calculated using the T100. Biaevaluation.

| Molecule | pSTAT3 IC50 (nM) (Human IL-23 [1]) | Activity (parent/mutant) (Human IL-23 [2]) | IC50 (Human IL-23 [3]) [nM] | Kd (Human IL-23 [4]) [nM] | koff (Human IL-23 [4]) [s⁻¹] | kon (Human IL-23 [4]) [M⁻¹ s⁻¹] |
| --- | --- | --- | --- | --- | --- | --- |
| anti-p19 polyclonal antibody (AF1716) | 36.5 | – | – | – | – | – |
| Anti-IL-23 Adnectin 1866F10 (designed binder) MGVSDVPRDLEVVAATPTSLLISWDHDYPYRRYYRITYGETGGNSPVQEFTVPRNINTATISGLKPGVDYTITVYAVTSTLKYDIQYSPISINYRTEIDKPSQHHHHHH | 0.06 | – | – | – | – | – |
| 1454B08 P87→A (designed binder, Point variant of 1454B08) MGVSDVPRDLEVVAATPTSLLISWEHDYPYRRYYRITYGETGGNSPVQEFTVPKDVDTATISGLKPGVDYTITVYAVTSSYKYDMQYSAISINYRTEIDKPSQHHHHHH | – | 0.1 | 8.3 | – | – | – |
| 1454B08 Y28→A (designed binder, Point variant of 1454B08) MGVSDVPRDLEVVAATPTSLLISWEHDYPARRYYRITYGETGGNSPVQEFTVPKDVDTATISGLKPGVDYTITVYAVTSSYKYDMQYSPISINYRTEIDKPSQHHHHHH | – | 0.08 | 13 | – | – | – |
| Anti-IL-23 Adnectin 1454E09 (designed binder, 10Fn3-based Adnectin expressed in E. coli followed by a HIS6 tag; Fn3 domain is positions 3-96 of the entry) MGVSDVPRDLEVVAATPTSLLISWMHDYPYRRYYRITYGETGGNSPVQEFTVPMEEDTATISGLKPGVDYTITVYAVTSSYKYDMQYSPISINYRTEIDKPSQHHHHHH | – | – | – | 10.1 | 0.000569 | 56600 |
| Anti-IL-23 Adnectin 1454B05 (designed binder, 10Fn3-based Adnectin expressed in E. coli followed by a HIS6 tag; Fn3 domain is positions 3-96 of the entry) MGVSDVPRDLEVVAATPTSLLISWYHDYPYRRYYRITYGETGGNSPVQEFTVPKDEETATISGLKPGVDYTITVYAVTSSYKYDMQYSPISINYRTEIDKPSQHHHHHH | – | – | – | 2.27 | 0.000677 | 298000 |
| Anti-IL-23 Adnectin 1454F09 (designed binder, 10Fn3-based Adnectin expressed in E. coli followed by a HIS6 tag; Fn3 domain is positions 3-96 of the entry) MGVSDVPRDLEVVAATPTSLLISWDHNYSYRRYYRITYGETGGNSPVQEFTVPRHTDTATISGLKPGVDYTITVYAVTSSYKYDMQYSPISINYRTEIDKPSQHHHHHH | – | – | – | 7.45 | 0.000928 | 125000 |
| Anti-IL-23 Adnectin 1454F05 (designed binder, 10Fn3-based Adnectin expressed in E. coli followed by a HIS6 tag; Fn3 domain is positions 3-96 of the entry) MGVSDVPRDLEVVAATPTSLLISWYMHYPYSRYYRITYGETGGNSPVQEFTVPKQHDTATISGLKPGVDYTITVYAVTSSYKYDMQYSPISINYRTEIDKPSQHHHHHH | – | – | – | 4.75 | 0.000525 | 111000 |
| 1454B08 Y81→A (designed binder, Point variant of 1454B08) MGVSDVPRDLEVVAATPTSLLISWEHDYPYRRYYRITYGETGGNSPVQEFTVPKDVDTATISGLKPGVDYTITVYAVTSSYKADMQYSPISINYRTEIDKPSQHHHHHH | – | 0.03 | 35 | – | – | – |
| 1454B08 T35→D (designed binder, Point variant of 1454B08; also called Thr35→Asp) MGVSDVPRDLEVVAATPTSLLISWEHDYPYRRYYRIDYGETGGNSPVQEFTVPKDVDTATISGLKPGVDYTITVYAVTSSYKYDMQYSPISINYRTEIDKPSQHHHHHH | – | 0.02 | 49 | – | – | – |
| Anti-IL-23 Adnectin 1454F07 (designed binder, 10Fn3-based Adnectin expressed in E. coli followed by a HIS6 tag; Fn3 domain is positions 3-96 of the entry) MGVSDVPRDLEVVAATPTSLLISWYHMYSYRRYYRITYGETGGNSPVQEFTVPRDVDTATISGLKPGVDYTITVYAVTSSYKYDMQYSPISINYRTEIDKPSQHHHHHH | – | – | – | 9.43 | 0.000447 | 47400 |

Other lines, results leading:

| pSTAT3 IC50 (nM) (Human IL-23 [1]) | Activity (parent/mutant) (Human IL-23 [2]) | IC50 (Human IL-23 [3]) [nM] | Kd (Human IL-23 [4]) [nM] | koff (Human IL-23 [4]) [s⁻¹] | kon (Human IL-23 [4]) [M⁻¹ s⁻¹] | Molecule |
| --- | --- | --- | --- | --- | --- | --- |
| – | 1.2 | 0.83 | – | – | – | 1454B08 V45→D (designed binder, Point variant of 1454B08) MGVSDVPRDLEVVAATPTSLLISWEHDYPYRRYYRITYGETGGNSPDQEFTVPKDVDTATISGLKPGVDYTITVYAVTSSYKYDMQYSPISINYRTEIDKPSQHHHHHH |
| – | 2.9 | 0.34 | – | – | – | 1454B08 V45→Q (designed binder, Point variant of 1454B08) MGVSDVPRDLEVVAATPTSLLISWEHDYPYRRYYRITYGETGGNSPQQEFTVPKDVDTATISGLKPGVDYTITVYAVTSSYKYDMQYSPISINYRTEIDKPSQHHHHHH |
| – | 1.5 | 0.65 | – | – | – | 1454B08 Y73→A (designed binder, Point variant of 1454B08) MGVSDVPRDLEVVAATPTSLLISWEHDYPYRRYYRITYGETGGNSPVQEFTVPKDVDTATISGLKPGVDYTITVAAVTSSYKYDMQYSPISINYRTEIDKPSQHHHHHH |
| – | 0.2 | 5.7 | – | – | – | 1454B08 V75→K (designed binder, Point variant of 1454B08) MGVSDVPRDLEVVAATPTSLLISWEHDYPYRRYYRITYGETGGNSPVQEFTVPKDVDTATISGLKPGVDYTITVYAKTSSYKYDMQYSPISINYRTEIDKPSQHHHHHH |
| – | 0.4 | 2.2 | – | – | – | 1454B08 V75→Y (designed binder, Point variant of 1454B08) MGVSDVPRDLEVVAATPTSLLISWEHDYPYRRYYRITYGETGGNSPVQEFTVPKDVDTATISGLKPGVDYTITVYAYTSSYKYDMQYSPISINYRTEIDKPSQHHHHHH |
| – | 1.8 | 0.54 | – | – | – | 1454B08 V45→N (designed binder, Point variant of 1454B08) MGVSDVPRDLEVVAATPTSLLISWEHDYPYRRYYRITYGETGGNSPNQEFTVPKDVDTATISGLKPGVDYTITVYAVTSSYKYDMQYSPISINYRTEIDKPSQHHHHHH |
| – | 0.4 | 2.3 | – | – | – | 1454B08 V75→Q (designed binder, Point variant of 1454B08) MGVSDVPRDLEVVAATPTSLLISWEHDYPYRRYYRITYGETGGNSPVQEFTVPKDVDTATISGLKPGVDYTITVYAQTSSYKYDMQYSPISINYRTEIDKPSQHHHHHH |
| – | 0.6 | 1.7 | – | – | – | 1454B08 T35→N (designed binder, Point variant of 1454B08) MGVSDVPRDLEVVAATPTSLLISWEHDYPYRRYYRINYGETGGNSPVQEFTVPKDVDTATISGLKPGVDYTITVYAVTSSYKYDMQYSPISINYRTEIDKPSQHHHHHH |
| – | 0.8 | 1.2 | – | – | – | 1454B08 Y73→R (designed binder, Point variant of 1454B08) MGVSDVPRDLEVVAATPTSLLISWEHDYPYRRYYRITYGETGGNSPVQEFTVPKDVDTATISGLKPGVDYTITVRAVTSSYKYDMQYSPISINYRTEIDKPSQHHHHHH |
| – | 1 | 1 | – | – | – | 1454B08 T35→Q (designed binder, Point variant of 1454B08) MGVSDVPRDLEVVAATPTSLLISWEHDYPYRRYYRIQYGETGGNSPVQEFTVPKDVDTATISGLKPGVDYTITVYAVTSSYKYDMQYSPISINYRTEIDKPSQHHHHHH |
| – | 1.7 | 0.6 | – | – | – | 1454B08 T35→E (designed binder, Point variant of 1454B08) MGVSDVPRDLEVVAATPTSLLISWEHDYPYRRYYRIEYGETGGNSPVQEFTVPKDVDTATISGLKPGVDYTITVYAVTSSYKYDMQYSPISINYRTEIDKPSQHHHHHH |
| – | 3.8 | 0.26 | – | – | – | 1454B08 Y73→Q (designed binder, Point variant of 1454B08; also called Tyr 73→Gln) MGVSDVPRDLEVVAATPTSLLISWEHDYPYRRYYRITYGETGGNSPVQEFTVPKDVDTATISGLKPGVDYTITVQAVTSSYKYDMQYSPISINYRTEIDKPSQHHHHHH |
| – | 0.8 | 1.2 | – | – | – | 1454B08 Y73→N (designed binder, Point variant of 1454B08) MGVSDVPRDLEVVAATPTSLLISWEHDYPYRRYYRITYGETGGNSPVQEFTVPKDVDTATISGLKPGVDYTITVNAVTSSYKYDMQYSPISINYRTEIDKPSQHHHHHH |
| – | 1.9 | 0.51 | – | – | – | 1454B08 V45→E (designed binder, Point variant of 1454B08) MGVSDVPRDLEVVAATPTSLLISWEHDYPYRRYYRITYGETGGNSPEQEFTVPKDVDTATISGLKPGVDYTITVYAVTSSYKYDMQYSPISINYRTEIDKPSQHHHHHH |
